Assay results reported in patent US20230416704A1, “LACTONASE AND STABILIZED MUTANTS THEREOF FOR TREATING FUNGAL INFECTIONS IN PLANTS” (MIGAL GALILEE RESEARCH INSTITUTE LTD., priority 2020, published 2023).

How the values were obtained:
[1] = Enzyme kinetics analysis of EaAiiA with patulin; settings: 0.05 μM EaAiiA, patulin 0-0.4 mM, pH 7.5, 100 μM ZnCl2
Protocol: (6A) Michaelis-Menten kinetics analysis with 0.05 μM purified bacterial lactonase (EaAiiA), in activity buffer containing 100 mM Tris pH 7.5, 100 mM NaCl, 100 μM ZnCl2, at Error bars indicate standard deviation of three replicates for each treatment.
Enzyme kinetics analysis with patulin. EaAiiA activity (0.05 μM) with patulin was analyzed as follows: EaAiiA activity was measured by detecting the reduction in the UV absorbance (detected at 278 nm) of patulin at different concentrations (0-0.4 mM) in the presence of enzyme at a final concentration of 0.05 μM, in an activity buffer containing 100 mM Tris pH 7.5, 100 mM NaCl, 100 μM ZnCl2, in UV 96-well plates. An activity buffer was used as a negative control. The activity was monitored in a microtiter plate reader (BioTeK, Winooski, VT, USA). Reactions were performed as the concentration of organic solvent was lower than 1%. Vo initial rates were corrected for the patulin spontaneous hydrolysis background rate performed with an activity buffer. Kinetic parameters were obtained by GraphPad software as fitting initial rates directly to the Michaelis-Menten equation, standard deviations obtained from three independent measurements.

P. expansum = test: Pathogenicity assay in apples (EaAiiA)
Protocol: The lesion size of the treated apples was measured 3 days after inoculation with P. expansum. Mean values of 18 replicates are presented (**** p<0.0001, according to one-way ANOVA followed by Tukey-Kramer).
Pathogenicity assay in apples. P. expansum spores (50 spores/ml) were incubated in 1 ml LB medium/sterile water at 25° C. 300 rpm either alone or 2 μM EaAiiA, and apples were then inoculated and incubated in the same manner as described above. Enzyme incubated with 50 mM EDTA at 90° C. for 1 hour was used as a negative control (inactivated enzyme).

B1: EaAiiA: AHL lactonase encoded by Erwinia amylovora, metallo-β-lactamase fold (protein, listed as Erwinia amylovora)
chain: MNYHIIPVTAFAQNCSVIWCPETGEAALVDPGGDAQKIKHEIAALGLTVKQILLTHGHLDHVGAAAELAEHYDVPIVGPHKADKFWLDGLPQQSQMFGFDECAPLTPDRWLQEGEVVLVGNTVLEVLLCPGHTPGHIVFFERKARLLVSGDVIFSGGVGRSDFPQGSHQDLIASILNKLLPLGDDVTFIAGHGPMSTLGRERISNPFLQ
[1]
  kcat: 5.426 ± 1.5 s⁻¹
[1]; read-out: estimated KM
  Km: 764 ± 284 µM
P. expansum; EaAiiA inactivated by 90° C. and EDTA prior to incubation with spores
  effect of inactivated enzyme on inhibition of fungal colonization: fully reduced the inhibition
P. expansum; spores incubated with 2 μM EaAiiA prior to apple inoculation, third day after inoculation
  decline of colonized area: 85%
